Substrate in this data set: O=c1[nH]c(=O)c2[nH]c(=O)[nH]c2[nH]1
Description: purified protein, by the assay type. To be noted: other: sodium borate buffer, pH 9.2, 25.0 °C.

B1: Pig uricase, native (Sigma) (Sus scrofa) (protein)
chain: MAHYRNDYKKNDEVEFVRTGYGKDMIKVLHIQRDGKYHSIKEVATSVQLTLSSKKDYLHGDNSDVIPTDTIKNTVNVLAKFKGIKSIETFAVTICEHFLSSFKHVIRAQVYVEEVPWKRFEKNGVKHVHAFIYTPTGTHFCEVEQIRNGPPVIHSGIKDLKVLKTTQSGFEGFIKDQFTTLPEVKDRCFATQVYCKWRYHQGRDVDFEATWDTVRSIVLQKFAGPYDKGEYSPSVQKTLYDIQVLTLGQVPEIEDMEISLPNIHYLNIDMSKMGLINKEEVLLPLDNPYGRITGTVKRKLTSRL
With B1, the Km was found to be 5.85 µM and the kcat came out at 15 s⁻¹.

Source of the values: patent US8465735B2, “Variant form of urate oxidase and use thereof” (Savient Pharmaceuticals, Inc., priority 2005, dated 2013).
